Laboratory results from patent US20100056764A1 (Novo Nordisk, published 2010).
“And” between values parts separate entries of the source, which are not always exact repeats. Equal entries are not always repeated. Where two headings read alike, the source gives them in different places. Blank lines part the entries; values can stand above or below the binder they belong to.

Key:
[1] = biological target: T1, human NKG2D (hNKG2D) on the cell surface (human, UniProt P26718 1-216); test: flow cytometry, NKG2D/DAP10 BaF/3 cells pre-incubated with antibody, then 1 µg MICA-mFc (competitor)
T1 construct: Carried by BaF/3 cells co-transfected with full-length NKG2D and DAP10, or naturally by human NK, CD8+ T and gamma-delta T cells (PBMC, whole blood); also called cell-surface NKG2D; NKG2D- and DAP10-expressing BaF/3 cells
T1 chain: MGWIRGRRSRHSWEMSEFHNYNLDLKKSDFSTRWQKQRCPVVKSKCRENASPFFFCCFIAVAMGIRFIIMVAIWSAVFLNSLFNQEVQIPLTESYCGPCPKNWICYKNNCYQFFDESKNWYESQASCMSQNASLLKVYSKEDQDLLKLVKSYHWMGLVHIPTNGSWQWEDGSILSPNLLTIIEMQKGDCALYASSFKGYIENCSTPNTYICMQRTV
Method: (§1) Flow cytometry assays—MICA blockade. […] The cells were then analysed on a B&D FACSArray flow cytometer. The degree of reduction of MICA binding by preincubation was analysed as MFI (mean fluorescence intensity) of binding with pre-incubation in % of binding of MICA without preincubation.

[2] = biological target: T1, human NKG2D (hNKG2D) on the cell surface; test: flow cytometry, dose-response on NKG2D- and DAP10-expressing BaF/3 cells
[3] = biological target: T2, cynomolgous monkey NKG2D on NK, CD8+ T and gamma-delta T cells (cynomolgous monkey (Macaca fascicularis), UniProt P61252 1-216); test: flow cytometry, NK cells; reference is 21F2 on human cells
T2 construct: whole, on cells; Target on cynomolgous PBMC and whole blood cells; also called cynomologous NKG2D; cyno NKG2D
T2 sequence (looked up): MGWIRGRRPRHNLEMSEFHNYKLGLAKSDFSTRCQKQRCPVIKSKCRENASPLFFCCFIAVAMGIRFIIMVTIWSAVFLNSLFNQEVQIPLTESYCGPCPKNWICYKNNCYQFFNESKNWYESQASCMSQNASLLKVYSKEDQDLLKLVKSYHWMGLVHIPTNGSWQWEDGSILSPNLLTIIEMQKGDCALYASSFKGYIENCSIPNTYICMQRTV
Method: (§2) Briefly, incubation with antibody was performed at 4° C. for 30 min followed by washing, then directly labelled secondary anti-hIgG4 antibody was added and incubated for 30 min at 4° C. along with antibodies specific for the various cell populations of interest, CD8, CD4, NK and γδ-T cells, then the cells were washed twice in PBS with 2% FCS and the red blood cell lysed. The cells were then analyzed by flow cytometry and binding to the different cell populations assessed.

[4] = biological target: T1, human NKG2D (hNKG2D) on the cell surface; test: cell-based or functional assay
[5] = biological target: T1, human NKG2D (hNKG2D) on the cell surface; test: flow cytometry, human NK cells in PBMC, anti-human IgG4 detection
Method: as §2

[6] = biological target: T2, cynomolgous monkey NKG2D on NK, CD8+ T …; test: flow cytometry, CD8 T cells; reference is 21F2 on human cells
Method: as §2

[7] = biological target: T1, human NKG2D (hNKG2D) on the cell surface; test: flow cytometry, human CD8 T cells in PBMC, anti-human IgG4 detection
Method: as §2

[8] = biological target: T1, human NKG2D (hNKG2D) on the cell surface; test: flow cytometry, human gamma-delta T cells (Gd) in PBMC, anti-human IgG4 detection
Method: as §2

[9] = biological target: T2, cynomolgous monkey NKG2D on NK, CD8+ T …; test: flow cytometry, cynomolgous gamma-delta T cells (Gd) in PBMC, anti-human IgG4 detection
Method: as §2

[10] = biological target: T1, human NKG2D (hNKG2D) on the cell surface; test: flow cytometry blocking assay on NKG2D/DAP10-expressing BaF/3 cells: pre-incubation with the antibody, then 1 µg MICA-mFc; y axis % remaining MICA-Fc binding
Method: as §1

[11] = biological target: T2, cynomolgous monkey NKG2D on NK, CD8+ T …; test: flow cytometry, gamma-delta T cells (Gd); reference is 21F2 on human cells
Method: as §2

[12] = biological target: T2, cynomolgous monkey NKG2D on NK, CD8+ T …; test: flow cytometry, cynomolgous NK cells in PBMC, anti-human IgG4 detection
Method: as §2

[13] = biological target: T2, cynomolgous monkey NKG2D on NK, CD8+ T …; test: flow cytometry, cynomolgous CD8 T cells in PBMC, anti-human IgG4 detection
Method: as §2

[14] = biological target: T1, human NKG2D (hNKG2D) on the cell surface; test: flow cytometry, NKG2D/DAP10 BaF/3 cells pre-incubated with antibody, then 1 µg MICA-mFc (competitor)
Method: as §1

[15] = biological target: T3, recombinant NKG2D-Fc protein (R&D Systems), immobilized on a Biacore CM5 chip (human, UniProt P26718 78-216); test: SPR (Biacore), NKG2D-Fc immobilized on CM5 chip at 400 RU, antibody in solution, Langmuir fit
T3 construct: also called NKG2D-hFc; hFc-NKG2D; not shown: Fc portion of the purchased fusion protein
T3 sequence: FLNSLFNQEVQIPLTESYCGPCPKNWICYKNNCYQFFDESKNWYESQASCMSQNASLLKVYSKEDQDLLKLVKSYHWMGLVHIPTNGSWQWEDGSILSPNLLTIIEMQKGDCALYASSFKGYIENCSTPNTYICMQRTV
Method: Surface plasmon resonance measurements were performed on a Biacore 1000 upgrade apparatus (Biacore GE Healthcare; Biacore Upgrade CA0396) at 25° C. In all Biacore experiments HBS-EP buffer (Biacore GE Healthcare; BR-1001-88) served as running buffer and sensorgrams were analyzed with Biaevaluation 4.1 software.
Protein immobilisation. […] Recombinant NKG2D-Fc proteins were immobilized covalently to carboxyl groups in the dextran layer on a Sensor Chip CM5 (Biacore GE Healthcare; BR-1000-14). The sensor chip surface was activated with EDC/NHS (N-ethyl-N′-(3-dimethylaminopropyl)carbodiimidehydrochloride and N-hydroxysuccinimide (Biacore GE Healthcare; BR-1000-50)). […] Deactivation of the remaining activated groups was performed using 100 mM ethanolamine pH 8 (Biacore GE Healthcare; BR-1000-50).
[…] The resulting sensorgrams were analysed by global fitting using the Langmuir model. The dissociation constant (KD) was calculated as KD=kd/ka.

IC50 [1]: 4.8 pM
EC50 [2]: 0.033 µg/mL and 0.023 nM
relative EC50, cynomolgous to human cells (%) [3]: 66.7%
EC50 [5]: 0.0712 µg/mL
relative EC50, cynomolgous to human cells (%) [6]: 71.9%
EC50 [7]: 0.0605 µg/mL
EC50 [8]: 0.0572 µg/mL
EC50 [9]: 0.0464 µg/mL
IC50 (read off the curve) [10]: ~4 pM
relative EC50, cynomolgous to human cells (%) [11]: 81.1%
EC50 [12]: 0.0475 µg/mL
EC50 [13]: 0.0435 µg/mL
Full blockade of 1 µg MICA-Fc (antibody concentration) [14]: 0.16 µg/mL
IC50 [14]: 0.0063 µg/mL
Kd [15]: 77.9 pM
koff [15]: 0.000144 s⁻¹
kon [15]: 1.85e+06 M⁻¹ s⁻¹
B1: 21F2, fully human anti-hNKG2D monoclonal antibody, recombinantly expressed as IgG4 isotype (antibody, V domains shown)
VH: EVQLVQSGAEVKEPGESLKISCKNSGYSFTNYWVGWVRQMPGKGLEWMGIIYPGDSDTRYSPSFQGQVTISADKSINTAYLQWSSLKASDTAMYYCGRLTMFRGIIIGYFDYWGQGTLVTVSS
VL: EIVLTQSPATLSLSPGERATLSCRASQSVSSYLAWYQQKPGQAPRLLIYDASNRATGIPARFSGSGSGTDFTLTISSLEPEDFAVYYCQQRSNWPWTFGQGTKVEIKR
notes: also called 21F2 IgG4; 21F2 (IgG4)
EC50 (µg/ml), inhibition of NK cell killing of ULPB3-expressing target cells (51Cr release) [4]: 0.021 µg/mL

IC50 (read off the curve) [10]: ~2 pM
B2: MS, fully human anti-hNKG2D monoclonal antibody, recombinantly expressed as IgG4 isotype (antibody, V domains shown)
VH: QVHLQESGPGLVKPSETLSLTCTVSDDSISSYYWSWIRQPPGKGLEWIGHISYSGSANYNPSLKSRVTISVDTSKNQFSLKLSSVTAADTAVYYCANWDDAFNIWGQGTMVTVSS
VL: not shown
notes: also called MS IgG4; MS (IgG4)
